Source: EP3873932A1

Columns and labels:
[1] = target: human amyloidomas (all implanted human amyloid extracts); experiment: in vivo microPET
[2] = target: human amyloidomas (all implanted human amyloid extracts); experiment: in vivo microPET, 4 days after tracer injection
[3] = target: human amyloidomas of kappa subtypes; experiment: in vivo microPET of mice implanted with kappa subtype amyloid
[4] = target: human amyloidomas of lambda subtypes; experiment: in vivo microPET of mice implanted with lambda subtype amyloid

T:B uptake (amyloid deposit-to-background) [1]: > 2.1
T:B ratio (amyloid deposit-to-background, SUVmax) [2]: 2.1 to 4.2
T:B ratio (amyloid deposit-to-background, SUVmax) [3]: 4.1
T:B ratio (amyloid deposit-to-background, SUVmax) [4]: 2.8
B1: [124I]CAEL-101 (antibody, human IgG1, V domains shown)
VH: QVQLKESGPGLVAPSQSLSITCTVSGFSLSSYGVSWVRQPPGKGLEWLGVIWGDGSTNYHPNLMSRLSISKDISKSQVLFKLNSLQTDDTATYYCVTLDYWGQGTSVTVSS
VL: DVVMTQTPLSLPVSLGDQASISCRSSQSLVHRNGNTYLHWYLQKPGQSPKLLIYKVSNRFSGVPRDFSGSGSGTDFTLKISRVEAEDLGLYFCFQTTYVPNTFGGGTKLEIK
modifications: 124I radiolabel by the standard iodogen reaction (residues and chain not stated)
